What was measured:
[1] = tested on: c-Met positive (≥25% 3+ IHC staining) advanced non-squamous NSCLC, EGFR mutant; test: Phase 2 study (NCT03539536) of Teliso-V monotherapy, objective response rate; format: in vivo, human; settings: Teliso-V monotherapy 1.9 mg/kg
c-Met expressing NSCLC = test: First in human phase I trial of Teliso-V monotherapy (NCT02099058), best overall response by c-Met IHC cutoff; format: in vivo
Excerpt: (§1) The clinical modeling data was obtained from the Teliso-V monotherapy trial NCT02099058. Abbreviations shown in FIG. 5 and determination of the values in the table are as follow: PPA (positive percent agreement): #oV positive uV positive/Total uV positive; NPA (Negative percent agreement): #oV negative uV negative/Total uV negative; OPA (Overall percent agreement): #oV positive uV positive+#oV negative uV negative/Total number of samples tested; PPV (Positive predictive value): #of oV positive uV positive/total #of oV positive; NPV (Negative predictive value): #of oV negative uV negative/Total oV negative. % BOR represents the percent best overall response.
as §1, with “FIG. 6” for “FIG. 5”
An analytical method comparison between SP44 Ultraview and SP44 OptiView on a large cohort of commercial NSCLC tissues was performed (FIG. 4). […] The overall percent agreement at this cutoff between the two assays was 93%. The first in human phase I clinical trial for Teliso-V monotherapy in NSCLC enrolled patients with an H-score of 150 using the SP44 UltraView assay. Upon re-scoring of the slides, the optimal cutoff utilizing the SP44 Ultraview IHC assay was ≥25% 3+ with a best overall response of 56%. The best overall response for the OptiView IHC assay at the same cutoff, ≥25% 3+, utilizing the phase I data through statistical modeling was 52% (FIG. 5).
The first in human phase I clinical trial for Teliso-V monotherapy in NSCLC enrolled patients with an H-score of 150 using the SP44 UltraView assay. […] The best overall response for the OptiView IHC assay at the same cutoff, ≥50% 3+, utilizing the phase I data through statistical modeling was 63% (FIG. 6).

B1: telisotuzumab vedotin (conjugate, chains of the INN, looked up)
VH: QVQLVQSGAEVKKPGASVKVSCKASGYIFTAYTMHWVRQAPGQGLEWMGWIKPNNGLANYAQKFQGRVTMTRDTSISTAYMELSRLRSDDTAVYYCARSEITTEFDYWGQGTLVTVSS
VL: DIVMTQSPDSLAVSLGERATINCKSSESVDSYANSFLHWYQQKPGQPPKLLIYRASTRESGVPDRFSGSGSGTDFTLTISSLQAEDVAVYYCQQSKEDPLTFGGGTKVEIK
modifications: vc-MMAE payload
notes: ADC of the c-Met targeting antibody ABT-700 conjugated to monomethyl auristatin E (MMAE) through a valine citrulline linker
With B1 the “ORR (CR + PR)” value ([1]; non-squamous NSCLC EGFR mutant patients, c-Met ≥25% 3+, interim analysis) was 11.6%, the “ORR (CR + PR)” value ([1]; subset of EGFR mutant subjects previously treated with osimertinib) was 0% and the “ORR (CR + PR)” value ([1]; subset of EGFR mutant subjects previously treated with osimertinib, listed as Teliso V) was 0%. It also gave a best overall response (c-Met expressing NSCLC; patients at ≥25% 3+ cutoff, OptiView IHC assay, phase I data through statistical modeling) of 52%, a best overall response (c-Met expressing NSCLC; patients at ≥25% 3+ cutoff, SP44 Ultraview IHC assay, re-scored slides) of 56% and a best overall response (c-Met expressing NSCLC; patients at ≥50% 3+ cutoff, OptiView IHC assay, phase I data through statistical modeling) of 63%. It also gave a best overall response (c-Met expressing NSCLC; patients at ≥50% 3+ membrane staining cutoff, SP44 Ultraview IHC assay, re-scored slides) of 67%.

From patent publication US20230285394A1, “METHODS OF TREATMENT OF NON-SMALL-CELL LUNG CARCINOMA USING TELISOTUZUMMAB VEDOTIN AND OSIMERTINIB” (AbbVie Biotherapeutics Inc., priority 2022, published 2023)
